Reference: publication PMC9303331, “Novel agonist and antagonist radioligands for the GLP‐2 receptor. Useful tools for studies of basic GLP‐2 receptor pharmacology” (British Journal of Pharmacology, 2022)
Read-outs that look alike come from different tables or passages of the source.

Legend:
mGLP‐1 receptor [1] = molecular target: T1, mGLP‐1 receptor (mouse, UniProt O35659 22-463)
T1 construct: mouse glucagon-like peptide-1 receptor, pcDNA3.1(+) plasmid from ThermoFisher; also called mouse GLP‐1 receptor; source: COS-7, transiently transfected (pcDNA3.1(+)), on whole cells
T1 sequence (looked up): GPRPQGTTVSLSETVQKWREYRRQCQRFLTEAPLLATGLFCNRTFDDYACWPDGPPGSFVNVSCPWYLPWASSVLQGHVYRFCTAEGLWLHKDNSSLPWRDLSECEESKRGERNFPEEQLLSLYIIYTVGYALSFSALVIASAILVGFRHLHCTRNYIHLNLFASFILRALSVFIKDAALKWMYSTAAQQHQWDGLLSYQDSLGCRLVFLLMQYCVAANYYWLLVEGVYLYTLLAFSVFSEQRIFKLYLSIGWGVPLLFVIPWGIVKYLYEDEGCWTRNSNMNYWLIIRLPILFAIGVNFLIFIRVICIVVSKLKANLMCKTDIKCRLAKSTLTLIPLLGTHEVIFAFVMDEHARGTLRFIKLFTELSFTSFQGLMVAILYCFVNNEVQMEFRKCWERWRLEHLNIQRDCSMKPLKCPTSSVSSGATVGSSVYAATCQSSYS

mGLP‐1 receptor [2] = molecular target: T1, mGLP‐1 receptor; remark: listed apart in the source
mGLP‐1 receptor [3] = molecular target: T1, mGLP‐1 receptor; details: one partner purified
mGLP‐2 receptor [4] = molecular target: T2, mGLP‐2 receptor (mouse, UniProt Q5IXF8 1-512); details: one partner purified
T2 construct: mouse glucagon-like peptide-2 receptor, pcDNA3.1(+) plasmid from ThermoFisher; also called mouse GLP‐2 receptor; source: COS-7, transiently transfected (pcDNA3.1(+)), on whole cells
T2 sequence (looked up): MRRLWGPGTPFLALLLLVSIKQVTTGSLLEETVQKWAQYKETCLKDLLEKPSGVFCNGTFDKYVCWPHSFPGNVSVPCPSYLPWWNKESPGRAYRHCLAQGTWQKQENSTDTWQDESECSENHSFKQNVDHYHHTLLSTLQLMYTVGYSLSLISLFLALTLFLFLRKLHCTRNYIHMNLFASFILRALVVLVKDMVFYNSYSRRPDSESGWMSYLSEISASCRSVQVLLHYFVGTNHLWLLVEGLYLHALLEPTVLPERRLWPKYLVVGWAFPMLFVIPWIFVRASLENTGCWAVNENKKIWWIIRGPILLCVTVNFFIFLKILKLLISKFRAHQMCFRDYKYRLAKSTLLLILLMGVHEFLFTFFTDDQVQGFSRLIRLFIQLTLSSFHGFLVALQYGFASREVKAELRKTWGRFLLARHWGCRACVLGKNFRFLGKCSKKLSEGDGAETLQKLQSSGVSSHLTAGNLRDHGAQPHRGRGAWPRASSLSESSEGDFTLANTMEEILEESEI

rGLP‐2 receptor [5] = molecular target: T3, rGLP‐2 receptor (rat, UniProt Q9Z0W0 1-550); details: one partner purified
T3 construct: rat glucagon-like peptide-2 receptor, pcDNA3.1(+) plasmid from ThermoFisher; also called rat GLP‐2 receptor; source: COS-7, transiently transfected (pcDNA3.1(+)), on whole cells
T3 sequence (looked up): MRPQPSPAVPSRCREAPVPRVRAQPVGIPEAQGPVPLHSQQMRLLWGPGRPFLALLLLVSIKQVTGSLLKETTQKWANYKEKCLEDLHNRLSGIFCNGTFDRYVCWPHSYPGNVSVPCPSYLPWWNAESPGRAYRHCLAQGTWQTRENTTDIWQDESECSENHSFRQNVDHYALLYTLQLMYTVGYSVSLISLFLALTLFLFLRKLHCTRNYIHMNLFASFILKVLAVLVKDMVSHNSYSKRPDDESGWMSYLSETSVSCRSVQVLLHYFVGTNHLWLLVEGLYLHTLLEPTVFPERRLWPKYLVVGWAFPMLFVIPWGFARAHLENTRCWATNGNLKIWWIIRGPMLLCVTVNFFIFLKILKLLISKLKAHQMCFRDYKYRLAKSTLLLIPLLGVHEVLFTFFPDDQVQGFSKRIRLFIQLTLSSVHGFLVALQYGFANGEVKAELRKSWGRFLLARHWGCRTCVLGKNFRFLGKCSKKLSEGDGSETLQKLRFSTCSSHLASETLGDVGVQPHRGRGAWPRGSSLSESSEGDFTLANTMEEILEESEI

mGLP‐1 receptor [6] = molecular target: T1, mGLP‐1 receptor; details: one partner purified; remark: listed apart in the source
mGLP‐2 receptor [7] = molecular target: T2, mGLP‐2 receptor; details: one partner purified; remark: listed apart in the source
rGLP‐2 receptor [8] = molecular target: T3, rGLP‐2 receptor; details: one partner purified; remark: listed apart in the source

## [^125I]‐hGLP‐2(1–33,M10Y) (peptide)
mGLP‐1 receptor [1]
  % max (specific binding of the radioligand, normalised to its binding to the mGLP-2 receptor): 84.5%

## [^125I]‐hGLP‐2(3–33,M10Y) (peptide)
mGLP‐1 receptor [2]
  % max (specific binding of the radioligand, normalised to its binding to the mGLP-2 receptor): 93.3%

## HADGSFSDEMNTILDNLAARDFINWLIQTKITD [hGLP‐2(1–33)]
mGLP‐1 receptor [3]
  Ki: 183 nM
  pIC50: 6.7
mGLP‐2 receptor [4]
  Ki: 18 nM
  pIC50: 7.7
rGLP‐2 receptor [5]
  Ki: 6.5 nM
  pIC50: 8.2
mGLP‐1 receptor [6]
  Ki: 208 nM
  pIC50: 6.7
mGLP‐2 receptor [7]
  Ki: 6.6 nM
  pIC50: 8.2
rGLP‐2 receptor [8]
  Ki: 5.4 nM
  pIC50: 8.3
